Earlier results on 3 molecules are cited in publication PMC9772450, “Gel-forming antagonist provides a lasting effect on CGRP-induced vasodilation” (Frontiers in Pharmacology, 2022).

Data set [1] deals with capsaicin-induced dermal blood flow. The following applies: in patients; ref Vu et al., 2017. An excerpt: It is known that anti-CGRP gepants could occupy a binding site close to the interface of the N-terminal domains of CLR and RAMP1, and act by allosteric regulation ([Miller et al., 2010]). Although the gepants compounds have low IC50 values in receptor activation assays in vitro, it is well documented that gepants need high concentrations to bloc ...

The conditions of data set [2]: antibodies; ref https://go.drugbank.com/drugs.
For the next data set, the system named is migraine. The note with it: 31% at baseline; 40–50% in the placebo group; ref Cady et al., 2022. An excerpt:
Migraine is a common complex neurovascular disorder that is manifested as episodic and predominantly unilateral throbbing headache with hypersensitivity to light, sound, and movement ([Erdener and Dalkara, 2014]; [Schuster and Rapoport, 2016]). According to the World Health Organization, 324 million people worldwide suffer from incapacitating migraine in 2008. In ∼ one-third of patients, migraine headaches are accompanied by an aura involving neurological symptoms such as transient visual, sensory, or motor disturbances ([Goadsby et al., 2002]). In the US, it was reported that 15% of Americans ...

B1: erenumab: anti-CGRP receptor antibody (antibody, chains of the INN, looked up, V domains shown)
VH: QVQLVESGGGVVQPGRSLRLSCAASGFTFSSFGMHWVRQAPGKGLEWVAVISFDGSIKYSVDSVKGRFTISRDNSKNTLFLQMNSLRAEDTAVYYCARDRLNYYDSSGYYHYKYYGMAVWGQGTTVTVSS
VL: QSVLTQPPSVSAAPGQKVTISCSGSSSNIGNNYVSWYQQLPGTAPKLLIYDNNKRPSGIPDRFSGSKSGTSTTLGITGLQTGDEADYYCGTWDSRLSAVVFGGGTKLTVL
As for B1, in data set [1], the “Concentration required for 50% inhibition of capsaicin-induced dermal blood flow” value is listed as 0.255 mg/L and the “Concentration required for 99% inhibition of capsaicin-induced dermal blood flow” value is on record as 1.134 mg/L. The Volume of distribution in data set [2] is reported as 3.86 L.

B2: galcanezumab: anti-CGRP antibody (antibody, chains of the INN, looked up, V domains shown)
VH: QVQLVQSGAEVKKPGSSVKVSCKASGYTFGNYWMQWVRQAPGQGLEWMGAIYEGTGKTVYIQKFADRVTITADKSTSTAYMELSSLRSEDTAVYYCARLSDYVSGFGYWGQGTTVTVSS
VL: DIQMTQSPSSLSASVGDRVTITCRASKDISKYLNWYQQKPGKAPKLLIYYTSGYHSGVPSRFSGSGSGTDFTLTISSLQPEDFATYYCQQGDALPPTFGGGTKVEIK
Regarding B2, the Volume of distribution in data set [2] was 7.3 L.

B3: eptinezumab: anti-CGRP antibody (antibody, chains of the INN, looked up, V domains shown)
VH: EVQLVESGGGLVQPGGSLRLSCAVSGIDLSGYYMNWVRQAPGKGLEWVGVIGINGATYYASWAKGRFTISRDNSKTTVYLQMNSLRAEDTAVYFCARGDIWGQGTLVTVSS
VL: QVLTQSPSSLSASVGDRVTINCQASQSVYHNTYLAWYQQKPGKVPKQLIYDASTLASGVPSRFSGSGSGTDFTLTISSLQPEDVATYYCLGSYDCTNGDCFVFGGGTKVEIK
With B3, the “Proportion of patients with moderate/maximal optimization at week four” value in the data set with migraine is recorded as 58%.
